test: soluble on expression in E. coli; label from the status in PepcDB or PDB records

Sequence	soluble on expression in E. coli
MGSDKIHHHHHHMLSKFWRPQAPQMIGVDIGSYEIKAILLGKTADGYKIQAHSCVPIKKGAVVDHDIRDSAAVIEALKQVKRGLPKSAKFAAVSVSGSAVMTKVIYMDSSLTEEEMEAQIEIEADNLIPYSLDEVSIDFETLKTNKTDPTKVDVLLSACRTENIDSRVDALDAIDIDAKVVDVEGYALGRSAELIMAQLPPGAEEKSVALVDIGANMTTFAVVERGETIFTREQAFGGELFTQAILSTYGMSYDEAENAKIKGELPRNYTFEVLSPFQTQLLQQVKRTLQIYATASGKEKVDYIVLCGGTAKLEGMEALLLNELGINTVVANPFLGCLHGDELIKSQLQPNVNKYMVACGLALRSYAQWRI	not soluble
MGSDKIHHHHHHMLSNNCSILLIDDDADVLDAYTQLLEQAGYHVSACNNPFDAREQVPKDWPGIVLSDVCMPGCSGIDLMTLFHQDDDLLPILLITGHGDVPMAVEAVKKGAWDFLQKPIDPGKLLTLVDAALRQRQSVIARRQYCQQKLQVELIGRSQWTVRYRQRLQQLAETDIAVWLYGEPGTGRMTGARYLHQLGRHAEGPFIACELTPANAHTLNELIAQAQGGTLVLSHPEHLTHEQQHQLVQLQSHEKRPFRLIGIGSASLVELAASSQIVAELYYCFAMTQIGCQPLSKRPDDIEPLFHHYLQKTCQRLNHPVPEVDAGLLKGMMRRVWPNNVRELANAAELFAVGVLPLAETVNPLMHIGEPTPLDQRVEDVERQIITEALNIHQGRINEVAEYLLIPRKKLYLRMKKYGLNKEHYKGV	not soluble
MGSDKIHHHHHHMLSTVFRRTMATGRHFIAVCQMTSDNDLEKNFQAAKNMIERAGEKKCEMVFLPECFDFIGLNKNEQIDLAMATDCEYMEKYRELARKHNIWLSLGGLHHKDPSDAAHPWNTHLIIDSDGVTRAEYNKLHLFDLEIPGKVRLMESEFSKAGTEMIPPVDTPIGRLGLSICYDVRFPELSLWNRKRGAQLLSFPSAFTLNTGLAHWETLLRARAIENQCYVVAAAQTGAHNPKRQSYGHSMVVDPWGAVVAQCSERVDMCFAEIDLSYVDTLREMQPVFSHRRSDLYTLHINEKSSETGGLKFARFNIPADHIFYSTPHSFVFVNLKPVTDGHVLVSPKRVVPRLTDLTDAETADLFIVAKKVQAMLEKHHNVTSTTICVQDGKDAGQTVPHVHIHILPRRAGDFGDNEIYQKLASHDKEPERKPRSNEQMAEEAVVYRNLM	not soluble
MGSDKIHHHHHHMLTPIPQIQHLFATNRRSARWLQLAFLLMALYYAPFSHAACTTPPSNTVLGPYGSSVVGVNGTPQVVASGSGFRCTGSVLSLASTNTITATIQSDSNPSGTTMRMRRGTTTDYVPYSLCMDSGCGTLYNINSTYTWSRTTFLDILGLFNSTDGTMPIYIRTSIGSNVSAGTYTDTVTIKWDYRLCALGILGLCSYDEGSTTSTLNITMTITNDCQITSAPNISFGTAAFPANFAAVNNNLGVRCTLLGAYTVKLVSTHPDDANWRRMTATVGSTPYYLQYQLYRTGNIAWTETNDYSGAGTGITQNIPYTARINASQASKPEGTYKDTVTINVTIN	not soluble
MGSDKIHHHHHHMLTVNNVSLRYGGRKLFEDVNLKFTPGNCYGIIGANGAGKSTFLKILSGEIEPNTGDVSVDSNTRISVLKQDHFQYDEYEVLETVIMGNERLYSIMKEKDALYAKPDFSEEDGIKASTLEGEFAELNGWEAESEAATLLQGLGISTELHSKKMSELIGGEKVKVLLAQALFGNPGILLLDEPTNHLDIKSIAWLEEFLIDFEGTVIVVSHDRHFLNKVCTMIADVDYGKITLYVGNYDFWYKSSTLALEMTKDQNKKKEEKIKELKDFIARFSANASKSKQATSRKKMLDKLNLEDIKPSNRKYPFIGFKPEREPGNDILTVENLSKTIDGEKVLNNVSFIVSKDDKIALVGDNEIAQTTLFKILSGEMEPDSGSYKWGITITNAYFPKDNSEYFNDCDLSLVDWLRQYSEEKSETYIRGFLGRMLFSGEEALKKASVLSGGEKVRCMLAKTMLTNANFLMFDQPTNHLDLESITALNNGLTNYKSNLMFTSHDHEFIQTIANRIIEITNDGIIDRKCTYDEYLEIQ	not soluble
MGSDKIHHHHHHMLTYTVYSEAGGVGKTTMAANLAVADARAGHDVLAIDMDPQEGSLSFLFDVADHRTDSEADSLVRHLVERPRGPFSDLIETSEGVDVLPAHNSLEVLSKHLRRREEEAADFGENWNPNVQLLRVLKDAGVPSEYDTVIIDPPATADVKLYNALHATRNLVIPFEPSGKGQQSVAGLADLVTGLEDTLDINVGVLAAVPNRFKGTNDQEEMLKRLQAESYDIPVVFRERTSLLEGCWRKQCSAFKYIEEHRSRERDYEIETLEQFEELAAHLRQTREQEATA	not soluble
MGSDKIHHHHHHMLVVKDKPKSPISEAYRTLRSNIQFSSFDKDMQLILITSSGPGEGKSTTSCNLALAMAEAGNSVLLLDCDLRKPSVHKKFKISNNIGLSNVLAGQTKFESASHWYNQNLCILTAGKIPPNPAEMLSSKRMKAFLNEAKGVFKYIILDAPPVIAVTDPQILSTMVDGVVLVVSSGVADIEAAKRAKELLENVNANIIGSVLNRVDTESRRGYYGGYYYYYGDEGEKVKKHKDR	not soluble
MGSDKIHHHHHHMMAKGTLCVLDPASILVVAPHFKRRLSGVTSTVVQLIPQQRRRGLAIATLGPGLPETMPALTFAQMPALWKKPRGASHRVWHARRNLEMLVGVVLRDVLRMPLKLLFTSAAQRHHSRYTRWLISKMDAVVATSARSGSFLHVPHSVIRHGIDTELFHPPQGAEDRIAATNLPGDYLIGCFGRVRHQKGTDLFVKAMIELLPRYPGWTAVVSGRVTPEHKGFAEGLKAQIAAASLTERIVFLGEVEDIKPWYRRLTLYVAPSRNEGFGLTPLEAMASETVVVASDAGAYAELIAEGATGAVVAADAYAPLRDAIEPYLADPGRACLHGKAAVAHVRENFALAREAAGLEAVYSRLLGRPVIAPPAPQP	not soluble
MGSDKIHHHHHHMMFGYIKPLKCELKVKEYEEFRGYYCGVCKALKKYSIIPRFLLTYEAASLGLLLSSLNNSDLKRKKELCIFTLKKVDFYSSSEIDEVARVFTALLREKLKDNYIDRKNPVYLFASAFLKKDPEISSLFENFYEMEKKEQDFKILAEEQGKIVGTILSKMVKEETQRKILYYLGLSLGKWLYIVDALDDFEKDKRKNVFNPLVKKYNGDLEKARSELRPHLKKCIDEMWKAYDLLDIKRNKTILDNIVYLGIPFITENVLVGKTCNLNHSTIL	not soluble
MGSDKIHHHHHHMMFVHIADNHLGYRQYNLDDREKDIYDSFKLCIKKILEIKPDVVLHSGDLFNDLRPPVKALRIAMQAFKKLHENNIKVYIVAGNHEMPRRLGEESPLALLKDYVKILDGKDVINVNGEEIFICGTYYHKKSKREEMLDKLKNFESEAKNYKKKILMLHQGINPYIPLDYELEHFDLPKFSYYALGHIHKRILERFNDGILAYSGSTEIIYRNEYEDYKKEGKGFYLVDFSGNDLDISDIEKIDIECREFVEVNIKDKKSFNEAVNKIERCKNKPVVFGKIKREFKPWFDTLKDKILINKAIIVDDEFIDMPDNVDIESLNIKELLVDYANRQGIDGDLVLSLYKALLNNENWKELLDEYYNTKFRG	not soluble
MGSDKIHHHHHHMMIATFSLSPAGAKRLIARGLINEAVFQQAMTHGRMIIGVGTTNSYIAEELGLLSADEKPRFAAGIVSGGVPCVTAADTRFTSICLENGRIIKDISWEEFIMDFNRDDVFVKGANAFDADGNAGVLLANPRGGTVGGSFGVLAARGCKLLVPVGHEKLIPSCTAAARLMGINRLDYSLGQRCGLALLPAGFAQIYTEIDALKTLFAVEATIVAAGGVSGSEGSVMLAIDGPDEAVKDALALARTLLKEKPLSVPRQSCKDCQASGNCVFKEIPPID	not soluble
MGSDKIHHHHHHMMITSKSLNRKSIPAPLPSIAEDVLEGLSRTPKSLPPKLLYDATGSDLFEQITCLPEYYPTRTEAGILTVHAEEICSHLRRNVSVSELGAGTATKTRILLRSLVRQQFGVNYFPLDVSDAALQLAKDEVESELSRVKVHPQLGDFDNLTFLEHQSPPRLVLYIGSSIGNLENDAAIALLQNIARNLSTGDKLLLGADLVKDINVMHAAYNDEAGVTALFNKNLLVRINRELSGHFDPESFCHISFWNEAESRIELHLESACRQAVRIDTLDMTFHFDRGERIHTENSYKYTVEHLENLLRSGGFQVEHTWTDPDSWFAVSLGVIT	not soluble
MGSDKIHHHHHHMMKLIPRSSDISPGIDGICPGPFPPNGFTVLTDAAYGNGDCFGLYWPIGQEHKLPIVCETYHDEWRIVPAFSSIKKFEEWLEVNDDDPHENGISIEDQDFAANLFRVARKCLSTGRLDDALPLLQRATEQLPEVSEYWLALAIQYRRCKKTEAAAQAALNAYLGNWAFGVPDNKVIHLLSQAADVPNFQDDPVIQCIKEQGLDLSFGGTKENNNYPLMQMCVDTYFAQRKPLQALTLLHNYAWIMSSETTAFQERYDFNIDEWRAKFRQLCLEYFGDSRTQFT	not soluble
MGSDKIHHHHHHMMKMERKNVWHHRKKEEIEAFSKEYMEFMSKAKTERMTVKEIKRILDESGFVPLEDFAGDPMNMTVYAVNRGKAIAAFRVVDDLKRGLNLVVAHIDSPRLDFKPNPLIEDEQIALFKTHYYGGIKKYHWLSIPLEIHGVLFKNDGTEIEIHIGDKPEDPVFTIPDLLPHLDKEDAKISEKFKGENLMLIAGTIPLSGEEKEAVKTNVLKILNEMYGITEEDFVSGEIEVVPAFSPREVGMDRSLIGAYGQDDRICAYTALRALLSANPEKSIGVIFFDKEEIGSDGNTGAKARFYLKALRQILKMQGAKDSEFVLDEVLENTSVISGDVCAAVNPPYKDVHDLHNAPKLGYGVALVKYTGARGKYSTNDAHAEFVARVRKVLNEQGVIWQVATLGKVDQGGGGTIAKFFAERGSDVIDMGPALLGMHSPFEISSKADLFETYVAYRSLMEKL	not soluble
MGSDKIHHHHHHMMNKREQDYWIFSVELRESKVSEENGKSIVITPLGLSAKRILIAGTVSSKQSDDRMARISLADPIGSFYVTAFSGGFNPEEKAMVDSLEVDDKAMVMGKINPYRTSEGVYLFSIRPELVSKTGEDALRLWTLKAYYFAKRRIYAIREAQKLQDPKADELISLGYSRVEAEAAISSIKNFPGYDYQRILEAIETAIYSVSTPTQLPEVRSKILNYIKENDTDGKGCKYEDIVIAAKNMGIDQSTTDEILNTLGSSGEIFEISLKRYKAVEPE	not soluble
MGSDKIHHHHHHMMNTSTSDPIGAAWLIRYASIELVSPLYITSSIGGRRQTYKEGNVIHNAYQETARPLDTIIAHLQFHMRHEVLNLELLVRLFEQIGADDVQAWVNAEPTGSYARRMAFLYEWLMDKELAVSSNLGGNYVDALDTKKMVTSSPEHIIKNARWRINDNLAGTRHFCPMLVKTEAFTQAAALDIATMVEKLNDEFGQDLLMRASVWMTLRESKASFTIEGEGKELKRIERFAEVMARRTGKGDIPLDPESLAELQQEILGSKTVIQQYGIRQSPVFVSHTQVNGFKEIVHYIAPPSEDIAYKLTGLQALMKKTEGQSALMRSAVASFAFVYIHPLADGNGRVHRFLINDVLRRDQVIHEPIILPISQAIAEHPSDRHAYDKILDRVSVPLMRQIRDHYRFDKQAVTYPDGIRSNLNFADSHLIQPAWRFMDLTPHVQYLSGLIAHVIEKEMHNESQYLRQHDHARLAIKEIVEMPNSYADRIIRSMLQNKGAKSNKLLQDYPFLANEAVWDDVFSVVVEIFK	not soluble
MGSDKIHHHHHHMMQKPKVGQDVPEPSAGGMFQRDAMSPSVAHKPVLELKGNLLSLMVLYLFDSDRNLIEQQFTEKISGAKNFFKNAPIVIDLHALQNTSVPVDLSHLSDLFRKHGLVPVGVRGGNVQQQQAALNLSLGILPDAKPASSRGEPQTEVAVQATRDKVFTQPVRSGQQVAALQGDLVVLAAVNPGAEILAGKNIHVYGPLRGRAIAGVHGYSEARIFCRYFDAELVAVAGQYMLNEDFEDSVRGKPVHIFLENDRLKIQPFEI	not soluble

— the DeepSol protein solubility set
